B1: human IL-22 (hIL-22) (ligand, UniProt Q9GZX6 34-179, looked up)
chain: APISSHCRLDKSNFQQPYITNRTFMLAKEASLADNNTDVRLIGEKLFHGVSMSERCYLMKQVLNFTLEEVLFPQSDRFQPYMQEVVPFLARLSNRLSTCHIEGDDLHIQRNVQKLKDTVKKLGESGEIKAIGELDLLFMSLRNACI
notes: interleukin-22, human; codon optimised; the IL-22 stretch is then probably the mature protein; also called native hIL-22; native human IL-22; source: CHO-S, transiently transfected, secreted, purified (HisTrap Excel, HiTrap Q flow-through)
B2: hIL-22-GLP1 (human IL-22 fused to a GLP1 receptor binding protein) (other)
chain: B1 chain

Biological target: the molecule itself
Assay: SEC + other: Western blot; HPLC-SEC: 50 uL of purified protein at 0.5 mg/mL on TSKgel 3000SWXL, 0.8 mL/min, PBS + 200 mM NaCl (pH 7.3), gel filtration standard for apparent molecular weight; Western blot conditions not told

Protein | stoichiometry N
B1 | 2
B2 | 2

From PMC11137118, “Liver and pancreatic-targeted interleukin-22 as a therapeutic for metabolic dysfunction-associated steatohepatitis” (Nature Communications, 2024)
